The source of these data is the Immune Epitope Database (IEDB).

pKd: −log10 of the molar value.

The first assay deals with HLA-A*03:01. Description: IEDB peptide-MHC binding, purified MHC/competitive/radioactivity; filed as Kd, often an IC50 or EC50 that approximates it; ≥ and ≤ were set here for values at or beyond the usual limits of such assays. The conditions noted are these: source organism: Dengue virus 1 Brazil/97-11/1997.
With RILQRGLLGR, the pKd (as a rule, −log10 of the Kd, conventionally taken in molar units) was 7.79.
Still for that read-out and setting: to TLLSLTFIK belongs 8.87; to FLSGKGLGK, 8.20; to IMDLHPGSGK, 7.22.

Staying with this assay, now noted: source organism: Dengue virus 2 Jamaica/1409/1983.
As to YLALLAAFK, the pKd was 8.88.
For the sequence AVQTKPGLFK, the pKd is 7.78.

Staying with this assay, now noted: source organism: Dengue virus 2 Peru/IQT2913/1996.
As for LMSGRGIGK, the pKd was 7.32.

The same assay, now with this note: source organism: Dengue virus 3 Martinique/1243/1999.
For the sequence MTHRRPTIEK, the pKd was 8.25.

The same assay, now with this note: source organism: Dengue virus 4 Philippines/H241/1956.
With HLKCKVRMEK, the pKd is 7.26.
The same measure, in the same setting: to VTFKVPHAK belongs 7.99.

Still in this assay, the particulars now being: source organism: Lassa virus Josiah.
With FCNLSDAHK, the pKd was at most 4.44.
As for TCQGSDDIR, the negative logarithm of the Kd (pKd) is at most 4.11.

Staying with this assay, now noted: source organism: Mammarenavirus machupoense.
Turning to TCNDHYLCLR, the pKd is at most 4.48.

Still in this assay, the particulars now being: source organism: SARS coronavirus Tor2.
On to MLLQFAYSNR, for which the pKd was 6.79.
Still for that read-out and setting: to ALAYYNNSK belongs 7.35.
Still for that read-out and setting: to IVNAANIHLK belongs 7.29; to TVYVYSRVK, 7.17.

Still in this assay, the particulars now being: source organism: Vaccinia virus WR.
LIPLSEMVVK: the pKd was 6.12.
The same measure, in the same setting: to NFIPIIYSK belongs 5.06; to TIQRFSSLRR, 7.10.
In the case of SMTYLYNKY, the pKd is 5.00.
Regarding NSINNQLMY, the negative-log Kd (pKd) was 5.33.
On to VVMAYVGIK, for which the pKd is 7.73.
Turning to MSSSVDVDIY, the pKd is at most 4.59.
On the same count and under the same terms, to YVGIKLGDK belongs 6.01; to TIDKSSPLY, 7.19; to GLFDFVNFVK, 9.49.
As to TFVNFNSVK, the negative logarithm of the Kd (pKd) is 6.11.
YILQLIRHGR: the pKd was 4.95.
Same read-out and setting: to STELIRRVR belongs 7.86; to KAIITPVVFY, 5.13.
Still for that read-out and setting: to PSRSKMLKR belongs 7.79; to TQMRTPLHK, 5.93.

In a further assay the target is HLA-A*11:01. The description is as above. The conditions noted are these: source organism: Dengue virus 1 Brazil/97-11/1997.
Consider TLLSLTFIK, for which the pKd is 7.91.
Still for that read-out and setting: to RTYSDPLALR belongs 7.04.

Still in this assay, the particulars now being: source organism: Dengue virus 2 Jamaica/1409/1983.
Regarding KSEFQIYKK, the negative-log Kd (pKd) is 6.61.
Same read-out and setting: to AVQTKPGLFK belongs 7.42.

Still in this assay, the particulars now being: source organism: Dengue virus 3 Martinique/1243/1999.
Regarding TILIKVEYK, the pKd is 5.90.
Regarding KTQVGVGVQK, the pKd was 7.23.
With AGLAFSIMK, the negative-log Kd (pKd) was 7.86.
Take MTHRRPTIEK: the pKd was 6.93.

The assay is the same for the next values; noted with them: source organism: Dengue virus 4 Philippines/H241/1956.
For MVEPWLSSK, the pKd is 6.19.
As to VTFKVPHAK, the pKd is 7.27.

The assay is the same for the next values; noted with them: source organism: Homo sapiens.
For ETLTSVFQK, the pKd is 7.96.

Still in this assay, the particulars now being: source organism: Lassa virus Josiah.
Regarding FCNLSDAHK, the negative logarithm of the Kd (pKd) was at most 4.29.
As for TCQGSDDIR, the pKd was at most 4.11.

Staying with this assay, now noted: source organism: Mammarenavirus brazilense.
As for KSSQRDTILK, the pKd was 7.48.

Still in this assay, the particulars now being: source organism: Mammarenavirus machupoense.
Take TCNDHYLCLR: the pKd was at most 4.21.

The assay is the same for the next values; noted with them: source organism: SARS coronavirus Tor2.
Take MLLQFAYSNR: the pKd is 6.07.
Turning to ALAYYNNSK, the pKd is 7.54.
Consider IVNAANIHLK, for which the pKd was 6.98.
As for TVYVYSRVK, the pKd is 6.84.

Staying with this assay, now noted: source organism: Vaccinia virus WR.
On to LIPLSEMVVK, for which the pKd was 7.26.
Same read-out and setting: to NFIPIIYSK belongs 6.67.
Same read-out and setting: to TIQRFSSLRR belongs 8.73.
Consider SMTYLYNKY, for which the pKd is 5.78.
The same measure, in the same setting: to NSINNQLMY belongs 6.88; to VVMAYVGIK, 8.91.
With MSSSVDVDIY, the pKd was 4.90.
Same read-out and setting: to YVGIKLGDK belongs 6.19; to TIDKSSPLY, 7.09.
Still for that read-out and setting: to GLFDFVNFVK belongs 9.04; to TFVNFNSVK, 7.67; to YILQLIRHGR, at most 4.56.
For the sequence STELIRRVR, the negative logarithm of the Kd (pKd) was 6.90.
On to KAIITPVVFY, for which the negative logarithm of the Kd (pKd) was 6.05.
Still for that read-out and setting: to PSRSKMLKR belongs 5.25.
On the same count and under the same terms, to TQMRTPLHK belongs 7.11.

In another assay the target is HLA-A*31:01. The assay is described as above. The note with it: source organism: Dengue virus 1 Brazil/97-11/1997.
With RILQRGLLGR, the pKd was at most 4.15.
Still for that read-out and setting: to KFQADSPKR belongs 7.40; to RTYSDPLALR, at most 4.15; to AMRCVGIGNR, 6.06.

The same assay, now with this note: source organism: Dengue virus 2 Jamaica/1409/1983.
On to YMPSMKRFRR, for which the pKd is 7.99.
Still for that read-out and setting: to GMMVLKIVR belongs 7.95.

The assay is the same for the next values; noted with them: source organism: Dengue virus 3 Martinique/1243/1999.
In the case of KLIHEWCCR, the pKd was 7.40.
Regarding SAKLQWFVER, the pKd is 7.46.
The same measure, in the same setting: to KEFKDFAAGR belongs 6.39.
Take ISQGAGWSLR: the pKd is 8.06.
Same read-out and setting: to MGITAEWLWR belongs 7.05; to PFLALGFFLR, 6.73.

The assay is the same for the next values; noted with them: source organism: Dengue virus 4 Dominica/814669/1981.
Consider KAIKILIGFR, for which the pKd is 8.06.

Still in this assay, the particulars now being: source organism: Dengue virus 4 Philippines/H241/1956.
Regarding TFKVPHAKR, the pKd is 8.92.

Still in this assay, the particulars now being: source organism: Lassa virus Josiah.
Turning to FCNLSDAHK, the pKd was at most 4.11.
On the same count and under the same terms, to TCQGSDDIR belongs at most 4.65.

The assay is the same for the next values; noted with them: source organism: Mammarenavirus machupoense.
As for TCNDHYLCLR, the pKd is 6.91.

The same assay, now with this note: source organism: SARS coronavirus Tor2.
As for MLLQFAYSNR, the negative logarithm of the Kd (pKd) is 7.65.
